Laboratory results as given in PMC6311007.

Biological target: porcine CSF1 fused to an antibody Fc region (pCSF1-Fc), produced in egg white of transgenic hens (porcine)
Experiment: non-reducing SDS-PAGE; pCSF1-Fc purified from egg white (MabSelect SuRe, SEC), non-reducing SDS-PAGE stained with Instant Blue

How did the stoichiometry N turn out when “porcine CSF1 fused to an antibody Fc region (pCSF1-Fc), produced in egg white of transgenic hens (Fc fusion)” was run?
The stoichiometry N was 2.
